Measured values published in US20020127657A1 (Dana-Farber, published 2002).
Numbering of substitutions follows the chain as printed.

T1: CD2BP2129-254 (human, UniProt O95400 129-254)
T1 construct: Yeast two-hybrid prey; vector fusion part not described
T1 sequence: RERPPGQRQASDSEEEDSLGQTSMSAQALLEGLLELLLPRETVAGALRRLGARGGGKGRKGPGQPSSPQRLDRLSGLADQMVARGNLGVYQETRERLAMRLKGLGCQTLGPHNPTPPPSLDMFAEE

T2: CD2BP2225-341 (yeast two-hybrid clone) (human, UniProt O95400 225-341)
T2 construct: Yeast two-hybrid prey in pJG4-5; vector fusion part not described
T2 sequence: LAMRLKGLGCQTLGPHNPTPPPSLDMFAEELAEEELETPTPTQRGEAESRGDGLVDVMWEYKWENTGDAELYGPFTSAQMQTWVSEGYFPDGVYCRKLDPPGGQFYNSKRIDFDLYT

T3: CD2BP2129-287 (human, UniProt O95400 129-287)
T3 construct: Yeast two-hybrid prey; vector fusion part not described
T3 sequence: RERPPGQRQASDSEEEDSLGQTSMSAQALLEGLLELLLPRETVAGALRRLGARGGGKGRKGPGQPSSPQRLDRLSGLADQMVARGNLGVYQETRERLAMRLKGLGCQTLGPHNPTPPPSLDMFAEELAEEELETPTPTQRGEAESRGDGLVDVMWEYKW

T4: CD2 binding protein 2 (CD2BP2) (human, UniProt O95400 1-341, limits assumed)
T4 construct: CD2BP2 as used in the yeast two-hybrid tests against CD2 derivatives (vector pJG4-5)
T4 sequence: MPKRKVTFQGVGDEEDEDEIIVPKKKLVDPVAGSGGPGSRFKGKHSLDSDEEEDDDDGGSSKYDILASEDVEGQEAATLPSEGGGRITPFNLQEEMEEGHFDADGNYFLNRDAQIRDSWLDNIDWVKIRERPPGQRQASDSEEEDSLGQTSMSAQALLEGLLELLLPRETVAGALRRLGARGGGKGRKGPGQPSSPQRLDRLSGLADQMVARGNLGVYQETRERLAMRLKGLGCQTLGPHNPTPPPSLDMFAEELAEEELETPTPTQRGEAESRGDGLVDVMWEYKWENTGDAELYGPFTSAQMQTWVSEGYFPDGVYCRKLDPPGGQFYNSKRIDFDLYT

B1: FLAG-CD2BP2 (other)
chain: DYKDDDDKMPKRKVTFQGVGDEEDEDEIIVPKKKLVDPVAGSGGPGSRFKGKHSLDSDEEEDDDDGGSSKYDILASEDVEGQEAATLPSEGGGRITPFNLQEEMEEGHFDADGNYFLNRDAQIRDSWLDNIDWVKIRERPPGQRQASDSEEEDSLGQTSMSAQALLEGLLELLLPRETVAGALRRLGARGGGKGRKGPGQPSSPQRLDRLSGLADQMVARGNLGVYQETRERLAMRLKGLGCQTLGPHNPTPPPSLDMFAEELAEEELETPTPTQRGEAESRGDGLVDVMWEYKWENTGDAELYGPFTSAQMQTWVSEGYFPDGVYCRKLDPPGGQFYNSKRIDFDLYT
notes: Expressed in COS7 (pcDNA1.1) and Jurkat J77 (pcDNA3.1) cells and tested from cell lysates; also called full length FLAG-CD2BP2 construct
B2: CD2 cytoplasmic region (CD2221-327) (receptor, human, UniProt P06729 245-351, looked up)
chain: NDEELETRAHRVATEERGRKPHQIPASTPQNPATSQHPPPPPGHRSQAPSHRPPPPGHRVQHQPQKRPPAPSGTQVHQQKGPPLPRPRVQPKPPHGAAENSLSPSSN
notes: range 221-327; Yeast two-hybrid bait expressed from vector pEG202; also called CD2 cytoplasmic tail; human CD2 cytoplasmic segment amino acids 221-327
B3: CD2BP2256-341Δ297-313 (other)
chain: AEEELETPTPTQRGEAESRGDGLVDVMWEYKWENTGDAELYPDGVYCRKLDPPGGQFYNSKRIDFDLYT
notes: Yeast two-hybrid prey; vector fusion part not described; also called deletion clone lacking those 17 residues
B4: CD2BP2256-341 (yeast two-hybrid clone) (other)
chain: AEEELETPTPTQRGEAESRGDGLVDVMWEYKWENTGDAELYGPFTSAQMQTWVSEGYFPDGVYCRKLDPPGGQFYNSKRIDFDLYT
notes: Yeast two-hybrid prey in pJG4-5; vector fusion part not described; also called shortest functional clone
B5: CD2BP2 Y312A (other)
chain: B4 chain with Y57A
notes: Yeast two-hybrid prey
B6: CD2BP2 W307A (other)
chain: B4 chain with W52A
notes: Yeast two-hybrid prey
B7: CD2BP2 F313A (other)
chain: B4 chain with F58A
notes: Yeast two-hybrid prey
B8: CD2BP2 G311A (other)
chain: B4 chain with G56A
notes: Yeast two-hybrid prey
B9: CD2221-271 (receptor, human, UniProt P06729 245-295, looked up)
chain: NDEELETRAHRVATEERGRKPHQIPASTPQNPATSQHPPPPPGHRSQAPSH
notes: range 221-271; CD2 cytoplasmic tail truncation mutant for yeast two-hybrid analysis; vector fusion part not described
B10: CD2BP2256-332 (other)
chain: AEEELETPTPTQRGEAESRGDGLVDVMWEYKWENTGDAELYGPFTSAQMQTWVSEGYFPDGVYCRKLDPPGGQFYNS
notes: Yeast two-hybrid prey; vector fusion part not described; also called nine-residue truncation

How the values were obtained:
human CD4 = biological target: T5, human CD4 (human, UniProt P01730 26-458); assay: co-immunoprecipitation from cotransfected COS7 cells, anti-FLAG Western blot
T5 construct: whole, on cells; Control in the COS7 co-immunoprecipitation; tested in cell lysate
Method: COS7 cells were transfected with FLAG-CD2BP2 cDNA (lane 1), with FLAG-CD2BP2 and a human CD2 cDNA (lanes 2 and 3), or with FLAG-CD2BP2 and a human CD4 cDNA (lanes 4 and 5), then were lysed and immunoprecipitated with the anti-FLAG mAb M2 (lanes 3 and 5), with anti-CD2 mAb (anti-T11₁)(lanes 1 and 2), or with anti-CD4 mAb (19Thy5D7) (lane 4). Subsequently, the amount of FLAG-CD2BP2 in the immunoprecipitates was assayed by anti-FLAG mAb M2 Western blotting.
To determine whether CD2BP2 associates specifically with CD2, COS7 cells were cotransfected with FLAG-CD2BP2 and CD2 cDNA, or, as a control, CD4 cDNA. Subsequently, the CD2 protein was immunoprecipitated with anti-CD2 mAb and association with CD2BP2 examined by Western blotting with anti-FLAG mAb. […] The amount of CD2BP2 associated with CD2, however, is only a fraction of the CD2BP2 protein expressed in the COS7 cells.
As the vectors for transfection, pcDNA1.1 and pcDNA3.1 (Invitrogen) were used with COS7 and with Jurkat cells, respectively. For expression of CD2 and CD4 in COS7 cells, a pCDM8 plasmid containing each was used (Sakiharna et al, Proc. Natl. Acad. Sci. USA 92:6444-6448 (1995); Li et al., J. Mol. Biol. 263:209-226 (1996)). […]

CD2BP2129-254 = biological target: T1, CD2BP2129-254; assay: yeast two-hybrid
Text: (§1) The yeast hybrid system interaction trap was used as described (Finley and Brent, Interaction Trap Cloning with Yeast (Oxford Univ. Press), NY (1995)). In brief, as bait, a human CD2 cDNA encoding the cytoplasmic segment amino acids 221-327 was transferred into the pEG202 vector. cDNAs from an activated human T cell cDNA library, CD2 binding protein 2 (CD2BP2), or mutant cDNA variants of CD2BP2 were introduced into the pJG4-5 vector between EcoRI and Xho1 restriction sites. Mutations were created by a previously described method (Higuchi et al., Nucleic Acids Res. 16:7351-7367 (1988)), and were confirmed by DNA sequencing. Both of the yeast shuttle vectors were introduced into the yeast strain EGY48, were plated onto selection plates containing glucose, and were incubated at 30° C. After 48 hours greater than 100 colonies were mixed, were transferred onto a plate containing galactose/raffinose and 5-bromo-4-chloro-3-indolyl-D-galactoside, and were incubated for 48 hours at 30° C. followed by 5 days at 8° C. The strength of the interaction was scored based on the time point when the blue color appeared in comparison with a negative control: ++++, <6 hours; +++, 12 hours: ++, <24 hours; +, <48 hours; ±, <72 hours; and −, >72 hours. CD2 mutations were generated and analyzed in a similar manner.

[1] = biological target: T2, CD2BP2225-341 (yeast two-hybrid clone); assay: yeast two-hybrid
Text: as §1

CD2BP2129-287 = biological target: T3, CD2BP2129-287; assay: yeast two-hybrid
Text: as §1

[2] = biological target: B2; assay: yeast two-hybrid
Text: as §1

[3] = biological target: T4, CD2 binding protein 2 (CD2BP2); assay: yeast two-hybrid
Text: as §1

binding result [2] | Binder | also measured
– | B1 | binding result (human CD4): no binding
– | B2 | binding result (CD2BP2129-254): no binding; binding result [1]: binds; binding result (CD2BP2129-287): no binding
no binding | B3 | –
binds | B4 | –
no binding | B5 | –
no binding | B6 | –
no binding | B7 | –
no binding | B8 | –
– | B9 | binding result [3]: no binding
no binding | B10 | –
